Assay results reported in the supplement of paper PMC9116672.
± gives the standard deviation of the averaged measurements or the uncertainty stated by the source.

Legend:
[1] = duplex formation free energy ΔG50 (Van't Hoff fit of HRM Tm); higher = less stable duplex; settings: temperature for dG: 50 °C, NaCl: 500 mM (unadjusted)
Outline: (§1)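 Duplexes of phosphodiester or phosphorothioate (mixed Rp/Sp) DNA strands, annealed 1:1, were melted in quadruplicate at 1–20 μM in 1× NNE buffer (500 mM NaCl, pH 7.0) with 1× EvaGreen, 37 to 97°C at 0.1°C/s. Enthalpy, entropy and extrapolated free energy come from a linear Van't Hoff fit of 1/Tm (Tm: peak of -dF/dT) against ln(CT/4), without salt adjustment and with fit standard deviations as errors. Free energy refers to 50°C.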

[2] = duplex formation enthalpy ΔH (Van't Hoff fit of HRM Tm); higher = less exothermic duplex formation; settings: temperature for dG: 50 °C, NaCl: 500 mM (unadjusted)
Outline: as §1

[3] = duplex melting temperature (HRM, EvaGreen); higher = more stable duplex
Outline: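 Complementary DNA strands (phosphodiester or phosphorothioate, Rp/Sp mixtures) were annealed 1:1 at 25 μM, then diluted to 1–20 μM duplex in NNE buffer (500 mM NaCl, pH 7.0) with 1× EvaGreen. A LightCycler96 read fluorescence (470/514 nm) while heating from 37°C to 97°C at 0.1°C/s. Melting temperature was the peak of the negative dF/dT curve from the instrument software. Four replicates were prepared; those lacking a clear peak were excluded and the rest averaged.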

[4] = duplex formation entropy ΔS (Van't Hoff fit of HRM Tm); higher = smaller entropy loss on duplex formation; settings: temperature for dG: 50 °C, NaCl: 500 mM (unadjusted)
Outline: as §1

[5] = backbone: PO-PO (both strands phosphodiester DNA)
[6] = backbone: PS-PO (listed strand fully phosphorothioate, complement phosphodiester)
[7] = backbone: PS-PS (both strands fully phosphorothioate)
[8] = duplex concentration 1 µM, backbone: PO-PO (both strands phosphodiester DNA)
[9] = duplex concentration 1 µM, backbone: PS-PS (both strands fully phosphorothioate)
[10] = duplex concentration 2.5 µM, backbone: PO-PO (both strands phosphodiester DNA)
[11] = duplex concentration 2.5 µM, backbone: PS-PO (listed strand fully phosphorothioate, complement phosphodiester)
[12] = duplex concentration 2.5 µM, backbone: PS-PS (both strands fully phosphorothioate)
[13] = duplex concentration 5 µM, backbone: PO-PO (both strands phosphodiester DNA)
[14] = duplex concentration 5 µM, backbone: PS-PO (listed strand fully phosphorothioate, complement phosphodiester)
[15] = duplex concentration 5 µM, backbone: PS-PS (both strands fully phosphorothioate)
[16] = duplex concentration 7.5 µM, backbone: PO-PO (both strands phosphodiester DNA)
[17] = duplex concentration 7.5 µM, backbone: PS-PO (listed strand fully phosphorothioate, complement phosphodiester)
[18] = duplex concentration 7.5 µM, backbone: PS-PS (both strands fully phosphorothioate)
[19] = duplex concentration 10 µM, backbone: PO-PO (both strands phosphodiester DNA)
[20] = duplex concentration 10 µM, backbone: PS-PO (listed strand fully phosphorothioate, complement phosphodiester)
[21] = duplex concentration 10 µM, backbone: PS-PS (both strands fully phosphorothioate)
[22] = duplex concentration 15 µM, backbone: PO-PO (both strands phosphodiester DNA)
[23] = duplex concentration 15 µM, backbone: PS-PO (listed strand fully phosphorothioate, complement phosphodiester)
[24] = duplex concentration 15 µM, backbone: PS-PS (both strands fully phosphorothioate)
[25] = duplex concentration 20 µM, backbone: PO-PO (both strands phosphodiester DNA)
[26] = duplex concentration 20 µM, backbone: PS-PO (listed strand fully phosphorothioate, complement phosphodiester)
[27] = duplex concentration 20 µM, backbone: PS-PS (both strands fully phosphorothioate)
[28] = duplex concentration 1 µM, backbone: PS-PO (listed strand fully phosphorothioate, complement phosphodiester)

Sequence | duplex formation free energy ΔG50 [1, 5] [kcal/mol] | duplex formation free energy ΔG50 [1, 6] [kcal/mol] | duplex formation free energy ΔG50 [1, 7] [kcal/mol] | duplex formation enthalpy ΔH [2, 5] [kcal/mol] | duplex formation enthalpy ΔH [2, 6] [kcal/mol] | duplex formation enthalpy ΔH [2, 7] [kcal/mol] | duplex melting temperature [3, 8] [°C] | duplex melting temperature [3, 9] [°C] | duplex melting temperature [3, 10] [°C] | duplex melting temperature [3, 11] [°C] | duplex melting temperature [3, 12] [°C] | duplex melting temperature [3, 13] [°C] | duplex melting temperature [3, 14] [°C] | duplex melting temperature [3, 15] [°C] | duplex melting temperature [3, 16] [°C] | duplex melting temperature [3, 17] [°C] | duplex melting temperature [3, 18] [°C] | duplex melting temperature [3, 19] [°C] | duplex melting temperature [3, 20] [°C] | duplex melting temperature [3, 21] [°C] | duplex melting temperature [3, 22] [°C] | duplex melting temperature [3, 23] [°C] | duplex melting temperature [3, 24] [°C] | duplex melting temperature [3, 25] [°C] | duplex melting temperature [3, 26] [°C] | duplex melting temperature [3, 27] [°C] | duplex formation entropy ΔS [4, 5] [cal/mol/K] | duplex formation entropy ΔS [4, 6] [cal/mol/K] | duplex formation entropy ΔS [4, 7] [cal/mol/K] | duplex melting temperature [3, 28] [°C]
TTAACCTGCAATGGATC | -11.83 ± 0.098 | -10.78 ± 0.066 | -8.858 ± 0.019 | -68.7 ± 2 | -73.7 ± 2 | -67.1 ± 1.9 | 60.19 ± 0.12 | 45.6 ± 0.62 | 63.2 ± 0.41 | 57.18 ± 0.21 | 48.62 ± 0.33 | 65.13 ± 0.59 | 59.09 ± 0.26 | 50.69 ± 0.37 | 66.57 ± 0.28 | 60.587 ± 0.046 | 51.91 ± 0.21 | 67.55 ± 0.2 | 61.376 ± 0.056 | 52.76 ± 0.14 | 68.98 ± 0.14 | 62.586 ± 0.015 | 54.03 ± 0.099 | 70.06 ± 0.25 | 63.32 ± 0.095 | 54.97 ± 0.2 | -176 ± 5.8 | -195 ± 6.1 | -180 ± 5.8 | –
TTCGCGGTCTCCATTA | -12 ± 0.26 | -11.23 ± 0.091 | -10.18 ± 0.084 | -59.2 ± 4.2 | -65.2 ± 2.1 | -60.9 ± 3 | – | 51.49 ± 0.12 | – | 60.46 ± 0.26 | 55.69 ± 0.27 | 68.99 ± 0.35 | 62.978 ± 0.054 | 58.1 ± 0.25 | 70.45 ± 0.55 | 64.448 ± 0.036 | 59.57 ± 0.46 | 71.62 ± 0.38 | 65.33 ± 0.18 | 60.56 ± 0.28 | 73.14 ± 0.38 | 66.71 ± 0.2 | 61.77 ± 0.089 | 74.63 ± 0.43 | 67.75 ± 0.63 | 62.58 ± 0.18 | -146 ± 12 | -167 ± 6.1 | -157 ± 8.9 | –
TTCTACATCCATCTTAATCCCA | -14.7 ± 0.46 | -12 ± 0.2 | -9.752 ± 0.037 | -99.4 ± 7.2 | -90.6 ± 5.1 | -78.1 ± 2.2 | – | 49.9 ± 0.91 | 69.29 ± 0.65 | 60.3 ± 0.71 | 52.2 ± 0.78 | 70.58 ± 0.52 | 61.7 ± 1 | 54.2 ± 0.62 | 71.5 ± 0.27 | 63 ± 0.72 | 55.53 ± 0.29 | 72.3 ± 0.098 | 63.81 ± 0.27 | 56.28 ± 0.17 | 73.48 ± 0.21 | 64.85 ± 0.098 | 57.3 ± 0.083 | 74.36 ± 0.2 | 65.55 ± 0.094 | 57.98 ± 0.21 | -262 ± 21 | -243 ± 15 | -212 ± 6.8 | 59.7
TTGAAAACCCATGTGC | -11.8 ± 0.082 | -10.62 ± 0.078 | -8.581 ± 0.024 | -69.1 ± 1.7 | -68.7 ± 2.4 | -69.7 ± 2.8 | 60.23 ± 0.095 | 44.39 ± 0.2 | 62.8 ± 0.81 | 56.79 ± 0.24 | 47.54 ± 0.18 | 64.91 ± 0.47 | 59.35 ± 0.12 | 49.47 ± 0.39 | 66.29 ± 0.13 | 60.57 ± 0.15 | 50.5 ± 0.34 | 67.33 ± 0.16 | 61.45 ± 0.1 | 51.45 ± 0.23 | 68.7 ± 0.13 | 62.67 ± 0.086 | 52.45 ± 0.36 | 69.66 ± 0.17 | 63.58 ± 0.29 | 53.33 ± 0.26 | -177 ± 5 | -180 ± 7.1 | -189 ± 8.7 | –
TTGTAGTTGACGTTTGTGATTTAGTGAATT | -23.4 ± 0.65 | -16.9 ± 0.24 | -12.45 ± 0.081 | -186 ± 8.2 | -151 ± 4.2 | -121 ± 2.5 | 75.58 ± 0.12 | 57.2 ± 0.68 | 76.626 ± 0.046 | 67.48 ± 0.5 | 59 ± 0.58 | 77.623 ± 0.046 | 68.57 ± 0.46 | 60.27 ± 0.37 | 78.24 ± 0.12 | 69.28 ± 0.39 | 60.98 ± 0.26 | 78.646 ± 0.027 | 69.64 ± 0.24 | 61.54 ± 0.13 | 78.98 ± 0.12 | 70.23 ± 0.23 | 62.29 ± 0.073 | 79.7 | 70.83 ± 0.099 | 62.84 ± 0.14 | -503 ± 23 | -414 ± 12 | -335 ± 7.4 | 66.16 ± 0.47
TTTGGGTTAGTAAGAAGGCAGCAGTTGGGC | -26.6 ± 0.73 | -20.7 ± 0.54 | -15.88 ± 0.14 | -194 ± 7.9 | -163 ± 7.3 | -138 ± 2.7 | 80.77 ± 0.16 | 64.9 ± 0.6 | 81.98 ± 0.11 | 74.54 ± 0.53 | 66.58 ± 0.4 | 82.782 ± 0.065 | 75.49 ± 0.43 | 67.7 ± 0.32 | 83.39 ± 0.22 | 76.34 ± 0.31 | 68.34 ± 0.25 | 83.787 ± 0.08 | 76.74 ± 0.24 | 68.92 ± 0.12 | 84.24 ± 0.16 | 77.38 ± 0.2 | 69.54 ± 0.097 | 85 | 77.939 ± 0.056 | 70.01 ± 0.096 | -517 ± 22 | -439 ± 21 | -377 ± 7.9 | 73.49 ± 0.58
